Tests used:
[1] = target: T1, PCPE-1 (Procollagen C-proteinase enhancer-1) glycoprotein, human (human, UniProt Q15113 26-449); assay: SPR competition: PCPE-1 (5 nM) co-injected with the mix on immobilized Mini III; mix of VHH-I5 and VHH-H4, 5 nM PCPE-1
T1 construct: mature; Secreted recombinant protein; also called purified human PCPE-1
T1 sequence (looked up): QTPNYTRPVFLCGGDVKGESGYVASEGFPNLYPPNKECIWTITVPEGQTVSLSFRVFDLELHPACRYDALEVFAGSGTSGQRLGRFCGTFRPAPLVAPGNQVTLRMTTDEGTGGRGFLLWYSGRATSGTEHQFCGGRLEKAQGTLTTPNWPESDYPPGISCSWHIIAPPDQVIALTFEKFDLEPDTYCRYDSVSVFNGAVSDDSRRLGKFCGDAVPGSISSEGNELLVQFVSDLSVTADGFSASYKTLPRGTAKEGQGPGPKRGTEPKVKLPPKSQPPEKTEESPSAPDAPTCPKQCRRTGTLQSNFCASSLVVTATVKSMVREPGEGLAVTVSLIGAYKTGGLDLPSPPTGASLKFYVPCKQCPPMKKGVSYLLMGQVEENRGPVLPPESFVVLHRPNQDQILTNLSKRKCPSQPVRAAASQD
Procedure: (§1) Surface plasmon resonance (SPR) experiments were carried out on a Biacore T200 (Cytiva). The ligand proteins, in solution in 10 mM HEPES pH 7.4 buffer for PCPE-1 or 10 mM sodium acetate pH 4.5 buffer for mini-procollagen III and streptavidin, are immobilized on CM5 chips by amine coupling. Analytes are diluted in running buffer (10 mM HEPES pH 7.4, 0.15 M NaCl, 5 mM CaCl₂), 0.05% P20) and injected at a flow rate of 30 or 50 μL/min. Competition, epitope binning and kinetics experiments were all carried out at 25° C. Regeneration was achieved by successive injection of 2 M guanidine chloride and 0.5 M EDTA for 30 sec. Sensorgrams were analyzed with Biacore T200 Evaluation v3.2.1 (Cytiva), using the most suitable models. IC50 was determined by non-linear regression using GraphPad Prism (v8.2.1).
What is more, their antagonistic effects are additive, and co-injection of a mixture of VHH-I5 and VHH-H4 with PCPE-1 virtually eliminates its interaction with Mini III.

[2] = target: T1, PCPE-1 (Procollagen C-proteinase …); assay: SPR competition: PCPE-1 (5 nM) co-injected with D1 (0-200 nM) on immobilized Mini III
Procedure: as §1
Similarly, the addition of diab-D1 completely blocks the stimulation of CPIII-Long cleavage by PCPE-1 (FIG. 4C).

[3] = target: T1, PCPE-1 (Procollagen C-proteinase …); assay: SPR, increasing concentrations of D1 (0-250 nM) on immobilized PCPE-1, Langmuir model
Procedure: as §1
(§2) 21, produced in bacteria. The interaction of diab-D1 with PCPE-1 was assessed by SPR, by injecting increasing concentrations of diab-D1 onto immobilized PCPE-1.

[4] = target: T1, PCPE-1 (Procollagen C-proteinase …); assay: SPR, D1 (0-250 nM) injected over immobilized PCPE-1, 1:1 binding model (Langmuir)
Procedure: as §1, §2

[5] = target: T1, PCPE-1 (Procollagen C-proteinase …); assay: SPR competition: PCPE-1 (5 nM) co-injected with D1 (0-200 nM) over immobilized mini-procollagen III; blocked ligand: Mini III
Procedure: FIG. 4B: Inhibition of PCPE-1/mini-procollagen III interaction in the presence of D1: the interaction of PCPE-1 (5 nM) with immobilized mini-procollagen III is measured and compared with the interaction obtained when PCPE-1 (5 nM) is co-injected with increasing amounts (0-200 nM) of D1. The % residual PCPE-1 uptake is plotted as a function of D1 concentration.
as §1

Row | Binder | IC50 [1] | IC50 [2] | Kd [3] | koff [4] | kon [4] | IC50 (read off the curve) [5]
1 | mix of VHH-I5 and VHH-H4 (other, Not one molecule: two separate nanobodies added together; the two chains are not linked; also called mixture of VHH-I5 and VHH-H4; VHH-I5 and VHH-H4 co-injected; not shown: C-terminal 6-His tag) VHH 1: MAQVQLVESGGGLVQPGGFLRLLCTASGNIFSSNTMGWYRRAPGKQREWVASISKGGSTNYADSVKDRFTISRSITKNTVYLQMVNLKPEDTAVYYCNPVPDSDNYASGQGTQVTVSS VHH 2: MAEVQLQASGGGFVQPGGSLRLSCAASGFTSEISNMGWFRQAPGKEREFVSAISGTHTTQTYYADSVKGRFTISRDNSKNTVYLQMNSLRAEDTATYYCAAEQDMSDLWLGSYWGQGTQVTVSS | ~20 nM |  |  |  |  | 
2 | bivalent nanobody VHH-H4-GS8-VHH-I5 (D1) (other, Single polypeptide of two VHHs (H4, linker, I5), biparatopic for PCPE-1 (CUB1 and CUB2); produced in bacteria; also called diab-D1; diabody D1; not shown: C-terminal tag of the pET29b(+) construct (6-His for the synthetic nanobodies)) MAEVQLQASGGGFVQPGGSLRLSCAASGFTSEISNMGWFRQAPGKEREFVSAISGTHTTQTYYADSVKGRFTISRDNSKNTVYLQMNSLRAEDTATYYCAAEQDMSDLWLGSYWGQGTQVTVSSAAAGSGSGSGSGSGSGGSQVQLVESGGGLVQPGGFLRLLCTASGNIFSSNTMGWYRRAPGKQREWVASISKGGSTNYADSVKDRFTISRSITKNTVYLQMVNLKPEDTAVYYCNPVPDSDNYASGQGTQVTVSS |  | ~3.5 nM | 0.32 nM | 0.000515 s⁻¹ | 1.6e+06 M⁻¹ s⁻¹ | ~3 nM
